The results in this text go back to US20180021429A1, “ANTICANCER AGENTS OR ANTIMETASTATIC AGENTS USING FSTL1 AND COMBINATION DRUG THEREOF” (PHARMA FOODS INTERNATIONAL CO., LTD., priority 2015, published 2018).

For one test, the target named is T1, FSTL1 (Homo sapiens, UniProt Q12841).
T1 sequence (Q12841 21-308): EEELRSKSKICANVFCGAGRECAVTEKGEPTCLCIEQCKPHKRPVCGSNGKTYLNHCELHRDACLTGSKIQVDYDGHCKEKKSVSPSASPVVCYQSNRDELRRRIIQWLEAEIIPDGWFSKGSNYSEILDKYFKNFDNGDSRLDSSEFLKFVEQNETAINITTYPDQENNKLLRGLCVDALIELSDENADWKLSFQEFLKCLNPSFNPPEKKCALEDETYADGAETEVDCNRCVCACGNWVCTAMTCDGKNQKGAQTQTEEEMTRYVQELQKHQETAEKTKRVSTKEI
Briefly: Inhibition of MSC induction by FSTL1 in mouse bone marrow cells, ALCAM- and PDGFRA-positive cells (Example 4). On the set-up: purchased R&D Systems, Inc. 1694-FN-050. To be noted: FSTL1 50 ng/mL, antibody 10 μg/mL, 11 days, vs control anti-DNP antibody. Format: cell-based. On the procedure:
It is known that when bone marrow cells are stimulated with FSTL1, mesenchymal stem cells (MSCs) having pluripotency or self-proliferative capacity grow (Cancer Research 73: 6185, 2013). Thus, 2×10^7 cells/well of bone marrow cells collected from the thigh bone of a C57BL/6 mouse were suspended in 3 mL/well of RPMI1640 (GIBCO/Thermo Fisher Scientific Inc., Cat. No. C11875500BT) medium containing 2% fetal bovine serum, supplemented with 50 ng/mL (final concentration) of FSTL1 (R&D Systems, Inc. Cat#1694-FN-050) and 10 μg/mL of the anti-FSTL1 antibody (#5-2, #5-3, #5-8, #5-10, #5-43, #6-55, or #7-34) or its isotype mouse IgG (anti-DNP antibody) as a control antibody “Control”, and cultured under stimulation (6-well plate). 11 days thereafter, the number of cells was counted while the cells were stained with a PE-labeled anti-ALCAM antibody (eBioscience, Cat. No. 12-1661-82) and a PE-labeled anti-PDGFRA antibody (eBioscience, Cat#12-1401-81) in order to examine the expression of MSC markers, and the contents of ALCAM-positive cells and PDGFR-positive cells were analyzed by flow cytometry using FACScan (Becton, Dickinson and Company, Code. BECTON-DICKINSON-FACSCAN) to calculate the number of each positive cell per culture.

Test [1] concerns mouse melanoma cells (B16-F10) forced to express Snail. Briefly: In vivo, intratumoral administration, Snail-positive B16-F10 bone metastasis model (Example 17). To be noted: intratumoral 200 μg/0.1 mL/tumor on day 7; GFP-positive tumor cells in bone marrow, day 14. On the set-up: species or system C57BL/6N mice. The source says: Three antibodies were comparatively analyzed for their antitumor effects and an immunosuppression-mitigating effect using bone metastasis models in which mouse melanoma cells B16-F10 forced to express Snail were subcutaneously and intravenously transplanted in C57BL/6N mice.
1. Experiment Group (n=5) • 1. No treatment • 2. Control IgG (anti-DNP) • 3. Anti-FSTL1 Clone #6-55 • 4. Anti-FSTL1 Clone #7-34 • 5. Anti-FSTL1 Clone #8-1 2. Experimental procedure • Day 0: transplantation of GFP-positive and Snail-positive B16-F10 tumor cells (5×10^5 cells subcutaneously & 1×10^5 cells intravenously) • Day 7: intratumoral administration of the antibody (200 μg/0.1 mL/tumor) • Day 14: various assays (with a focus on flow cytometry analysis) 3. Index for drug efficacy evaluation • Effects on the growth of subcutaneous tumor (calculation of tumor volume by tumor size measurement): measured 7, 11, and 14 days after tumor implantation (FIG. 11C) • Effects on bone metastasis (GFP-positive tumor cells in bone marrow) (FIG. 11A) • Effects on the expansion of mesenchymal stem cells (CD45-negative cells in bone marrow and in the spleen) (FIGS. 11B and 11D) • Effects on the expansion of immunosuppressive Treg cells (CD4-positive and Foxp3-positive cells in bone marrow or the spleen) (FIG. 11D) • Other immunosuppressive properties (FIG. 11D)
In order to evaluate in vivo antibody activity, antitumor effects and immunosuppression-mitigating effects were comparatively analyzed using bone metastasis models in which mouse melanoma cells (B16-F10) forced to express Snail were subcutaneously and intravenously transplanted in C57BL/6N mice. An anti-FSTL1 antibody to be tested was administered into tumor. On day 0, GFP-positive and Snail-positive B16-F10 tumor cells (5×10^5 cells subcutaneously & 1×10^5 cells intravenously) were transplanted. On day 7, the antibody was administered into subcutaneous tumor (200 μg/0.1 mL/tumor). On day 14, various assays were conducted. […]

In test [2] the test system is GFP+F10-snail+ tumor cells. As to the kind of experiment: In vivo drug efficacy of each anti-FSTL1 antibody clone, Snail+ tumor bone metastasis model (Example 32). More on the design: species or system mouse. The settings on record: intraperitoneal 10 mg/kg on days 4 and 7; for suppressive activity against subcutaneous tumor growth: FIG. 26, vs control antibody; for mouse survival period (life-prolonging effect): FIG. 27. As to the method:
• Day 0: transplantation of GFP+F10-snail+ tumor cells (3×10^5 cells subcutaneously & 2×10^4 cells intravenously) • Day 4: intraperitoneal administration of the antibody (first dose, 10 mg/kg) • Day 7: intraperitoneal administration of the antibody (second dose, 10 mg/kg)
Subcutaneous tumor was measured 4, 7, 10, 14, 17, 20, and 23 days after tumor cell transplantation.

B1: #5-43: chicken-mouse chimeric anti-FSTL1 antibody clone; variable regions SEQ ID NO: 779 (light), 781 (heavy) (antibody, V domains shown)
VH: AVTLDESGGGLQTPGGGLSLVCKGSGFTFSSFNMFWVRQAPGKGLEWVAGIGKDGGTGYGAAVDGRATISKDSGQSTLRLQLNNLRAEDTGTYYCAKAAGGCSYDWCGAYTGDIDTWGHGTEVIVSS
VL: ASTQPSSVSANPGEAVKITCSGGSGSYYGWYQQKSPGSAPVTVIYNNNQRPSDIPSRFSGSKSGSTATLTITGVQAEDEAVYFCGGYDSSTGHGGIFGAGTTLTVL
modifications: mouse constant regions
Consider B1, for which the “inhibitory activity against the expansion of ALCAM-positive cells and PDGFRA-positive cells by FSTL1” value (“inhibitory activity” below) with FSTL1 is reported as “slightly strong tendency of inhibitory activity”.

B2: #8-1: chicken-mouse chimeric anti-FSTL1 antibody clone; variable regions SEQ ID NO: 791 (light), 793 (heavy) (antibody, V domains shown)
VH: AVTLDESGGGLQTPGGALSLVCKGSGFTFSSFNMFWVRQAPGKGLEWVAGIGKDGVPKYGAAVDGRATISKDNGQSTMRLQLNNLRAEDTGTYFCAKAAGGCSYDWCGIYAGDIDTWGHGTEVIVSS
VL: ASTQPSSVSANPGEAVKITCSGGSGSYYGWYQQKSPGSAPVTVIYNNNQRPSDIPSRFSGSKSGSTATLTITGVQAEDEAVYFCGGYDSSSGHGGIFGAGTTLTVL
modifications: mouse constant regions
B2: in test [1], the bone metastasis result was “bone metastasis was suppressed by only #6-55 and #8-1”.

B3: #13: chicken-mouse chimeric anti-FSTL1 antibody clone; variable regions SEQ ID NO: 815 (light), 817 (heavy) (antibody, V domains shown)
VH: AVTLDESGGGLQTPGGGLSLVCKASGFTFSSVTMQWVRQAPGKGLEWVASICSGSSTYYGPAVKGRATISRDNGQNTVRLQLNNLRAEDTATYYCAKIVGRGRWSCTSAAYNIDAWGHGTEVIVSS
VL: ASTQPSSVSANPGETVKITCSGGGNNYGWYQQKSPGSAPVTVIYNNNNRPSNIPSRFSGSKSGSTNTLTITGVQAEDEAVYYCGSYDSSSDSGIFGAGTTLTVL
modifications: mouse constant regions
Turning to B3, the “suppressive activity against subcutaneous tumor growth” value in test [2] was “all of the clones except for #13 exhibited statistically significant suppressive activity”.

B4: #6-55: chicken-mouse chimeric anti-FSTL1 antibody clone; variable regions SEQ ID NO: 783 (light), 785 (heavy) (antibody, V domains shown)
VH: AVTLDESGGGLQTPGGALSLVCKGSGFTFTSVTMQWVRQAPGKGLEWVASVCSGSSTYYAPAVKGRATISRDNGQSTVRLQLSNLRPEDTGTYYCAKIAGRARWSCTSAAYNIDAWGHGTEVIVSS
VL: ASTQPSSVSAIPGETVKITCSGGGNNYGWYQQRSPGSAPVTVIYYNDNRPSNIPSRFSGSTSGSTSTLTITGVQADDEAIYYCGSWDSNTDSGIFGAGTTLTVL
modifications: mouse constant regions
As for B4, the bone metastasis result in test [1] was “bone metastasis was suppressed by only #6-55 and #8-1”. In addition, in test [2], the “suppressive activity against subcutaneous tumor growth” value is reported as “statistically significant suppressive activity” and the “mouse survival period (life-prolonging effect)” value was “statistically significant life-prolonging effect”. Moreover, the “inhibitory activity” value with FSTL1 is reported as “slightly strong tendency of inhibitory activity”.

B5: #7-34: chicken-mouse chimeric anti-FSTL1 antibody clone; variable regions SEQ ID NO: 787 (light), 789 (heavy) (antibody, V domains shown)
VH: AVTLDESGGGLQTPGGGLSLVCKASGFTFSSVTMQWVRQAPGKGLEWVASICSGSSTYYGPAVKGRATISRDNGQNTVRLQLNNLRAEDTATYYCAKIVGRGRWSCTSAAYNIDAWGHGTEVIVSS
VL: ASTQPSSVSANPGETVKITCSGGGNNYGWYQQKSPGSAPVTVIYYNNNRPSNIPSRFSGSTSGSTSTLTITGVQAEDEAVYYCGSYEGSTDSGIFGAGTTLTVL
modifications: mouse constant regions
With B5, the bone metastasis entry in test [1] is “no suppressive effect was seen”. The “inhibitory activity” value with FSTL1 is given as “slightly strong tendency of inhibitory activity”.

B6: #33: chicken-mouse chimeric anti-FSTL1 antibody clone; variable regions SEQ ID NO: 823 (light), 825 (heavy) (antibody, V domains shown)
VH: AVTLDESGGGLQTPGGGLSLVCKASGFTFSSFNMNWVRQAPGKGLEYVAEISGTGSSTYYGSAVKGRATISRDNGQSTVRLQLNNLRAEDTATYFCARGDGAYSIDAWGHGTEVIVSS
VL: ASTQPSSVSANPGETVEITCSGDSSYYGWFQQKSPGSAPVTVIYDNTNRPSDIPSRFSGSKSGSTATLTITGVRAEDEAVYYCGGYDSSTYDGIFGAGTTLTVL
modifications: mouse constant regions
Regarding B6, the “mouse survival period (life-prolonging effect)” value in test [2] is given as “therapeutic effects equal to or higher than those of #6-55”.
